The values that follow come from patent US20260240820A1, “METHOD FOR CONTROLLING MEMBRANE POTENTIAL-DEPENDENT ION CHANNEL THROUGH TYPE I TASTE RECEPTORS (T1RS)” (ION CHAT RESEARCH CORPORATE, priority 2022, published 2026).

Entries after “also recorded” stand apart in the source; their conditions may differ. Read-outs that look alike come from different tables or passages of the source.

The test system of the test is Nav1.6. The test is described as follows: Patch-clamp recording of VGSC current in HEK (Nav1.6) cells. Format: cell-based, human.

B1: Thaumatin: sweet-tasting protein binding to the CRD of T1R3 (protein)
chain: ATFEIVNRCSYTVWAAASKGDAALDAGGRQLNSGESWTINVEPGTNGGKIWARTDCYFDDSGSGICKTGDCGGLLRCKRFGRPPTTLAEFSLNQYGKDYIDISNIKGFNVPMDFSPTTRGCRGVRCAADIVGQCPAKLKAPGGGCNDACTVFQTSEYCCTTGKCGPTEYSRFFKRLCPDAFSYVLDKPTTVTCPGSSNYRVTFCPTA
On to B1, for which the “Effect on VGSC current, alone” value is given as “amplified VGSC currents similarly to Aβ1-42”. Also, where the note is “listed as thaumatin”, the “Effect on VGSC current when applied after Aβ1-42” value is on record as “further amplification of VGSC currents was not observed; also recorded: no further amplification” and the “Effect on VGSC current, alone” value was “similarly amplified VGSC currents as Aβ1-42”.
